Assay results published in FireProtDB (doi:10.1021/bi00462a019).
Several values for one entry are separate records, joined by “and”; a condition that tells them apart may be missing. Identical values can stand only once.

Conditions: Aspergillus oryzae (strain ATCC 42149 / RIB 40), 25 °C, Fluorescence, reversible: yes, whole UniProt chain shown

B1: Guanyl-specific ribonuclease T1 wild type, P00651 (protein)
chain: MMYSKLLTLTTLLLPTALALPSLVERACDYTCGSNCYSSSDVSTAQAAGYQLHEDGETVGSNSYPHKYNNYEGFDFSVSSPYYEWPILSSGDVYSGGSPGADRVVFNENNQLAGVITHTGASGNNFVECT
denaturant m value (pH 2.92, GdnHCl, formate 30 mM): 2.89 kcal/mol/M | denaturant midpoint (higher = more stable) (pH 2.92, GdnHCl, formate 30 mM): 2.78 M | unfolding free energy (pH 2.92, GdnHCl, formate 30 mM): 8.04 kcal/mol | unfolding free energy (pH 2.92, Urea, formate 30 mM): 6.2 kcal/mol | denaturant m value (pH 3.02, GdnHCl, formate 30 mM): 2.89 kcal/mol/M | denaturant midpoint (higher = more stable) (pH 3.02, GdnHCl, formate 30 mM): 1.8 M | unfolding free energy (pH 3.02, GdnHCl, formate 30 mM): 5.2 kcal/mol | unfolding free energy (pH 3.02, Urea, formate 30 mM): 5.2 kcal/mol | denaturant m value (pH 6.98, GdnHCl, MOPS 30 mM): 3.09 kcal/mol/M and 2.58 kcal/mol/M | denaturant midpoint (higher = more stable) (pH 6.98, GdnHCl, MOPS 30 mM): 2.99 M and 2.98 M | unfolding free energy (pH 6.98, GdnHCl, MOPS 30 mM): 9.24 kcal/mol and 7.7 kcal/mol | denaturant m value (pH 9.89, GdnHCl, glycine 30 mM): 3.27 kcal/mol/M | denaturant midpoint (higher = more stable) (pH 9.89, GdnHCl, glycine 30 mM): 2.57 M | unfolding free energy (pH 9.89, GdnHCl, glycine 30 mM): 8.4 kcal/mol | unfolding free energy (pH 9.89, Urea, glycine 30 mM): 8.6 kcal/mol | denaturant m value (pH 9.91, GdnHCl, glycine 30 mM): 2.58 kcal/mol/M | denaturant midpoint (higher = more stable) (pH 9.91, GdnHCl, glycine 30 mM): 1.36 M | unfolding free energy (pH 9.91, GdnHCl, glycine 30 mM): 3.52 kcal/mol
